Results on 75 variants are retold here after publication doi:10.1101/2021.08.20.457142.

B1: MKK6 D-site peptide / p38-alpha (MAPK14) L195A, full length (parent complex)
chain 1: SQSKGKKRNPGLKIPKEAFEQP
chain 2: MSQERPTFYRQELNKTVWEVPERYQNLSPVGSGAYGSVCAAFDTKTGHRVAVKKLSRPFQSIIHAKRTYRELRLLKHMKHENVIGLLDVFTPARSLEEFNDVYLVTHLMGADLNNIVKCQKLTDDHVQFLIYQILRGLKYIHSADIIHRDLKPSNLAVNEDCELKILDFGLARHTDDEMTGYVATRWYRAPEIMANWMHYNQTVDIWSVGCIMAELLTGRTLFPGTDHIDQLKLILRLVGTPGAELLKKISSESARNYIQSLAQMPKMNFANVFIGANPLAVDLLEKMLVLDSDKRITAAQALAHAYFAQYHDPDDEPVAEPYDQSFESRDFLIDEWKSLTYDEVISFVPPPLDQEEMES

Variants of B1 are the subject of this assay.
Consider chain 1 G5K, for which the screen value is 2.33 Z-score of the enrichment rate within one screen of 711 sequences.

On to chain 1 G5F, for which the screen value was 3.61 Z-score of the enrichment rate within one screen of 711 sequences.

For chain 1 G5W, the screen value is 4.45 Z-score of the enrichment rate within one screen of 711 sequences.

On to chain 1 G5M, for which the screen value was 2.63 Z-score of the enrichment rate within one screen of 711 sequences.

Consider chain 1 G5N, for which the screen value is 1.64 Z-score of the enrichment rate within one screen of 711 sequences.

Consider chain 1 R8A, chain 1 K16A, for which the screen value is -0.602 Z-score of the enrichment rate within one screen of 711 sequences.

For the variant chain 1 K7A, chain 1 G11A, the screen value was 0.113 Z-score of the enrichment rate within one screen of 711 sequences.

With chain 1 K6A, chain 1 G11A, the screen value is 0.561 Z-score of the enrichment rate within one screen of 711 sequences.

Regarding chain 1 P10L, the screen value is 1.79 Z-score of the enrichment rate within one screen of 711 sequences.

For the variant chain 1 P10C, the screen value is 0.201 Z-score of the enrichment rate within one screen of 711 sequences.

As to chain 1 P10M, the screen value was 0.502 Z-score of the enrichment rate within one screen of 711 sequences.

Turning to chain 1 P10T, the screen value is 0.699 Z-score of the enrichment rate within one screen of 711 sequences.

As for chain 1 P10A, the screen value was 0.621 Z-score of the enrichment rate within one screen of 711 sequences.

As to chain 1 P10Y, the screen value was 0.723 Z-score of the enrichment rate within one screen of 711 sequences.

As to chain 1 P10F, the screen value was 0.865 Z-score of the enrichment rate within one screen of 711 sequences.

On to chain 1 P10D, for which the screen value is -0.469 Z-score of the enrichment rate within one screen of 711 sequences.

Take chain 1 P10S: the screen value was 0.158 Z-score of the enrichment rate within one screen of 711 sequences.

Take chain 1 P10W: the screen value was 0.911 Z-score of the enrichment rate within one screen of 711 sequences.

In the case of chain 1 P10V, the screen value is 0.742 Z-score of the enrichment rate within one screen of 711 sequences.

Regarding chain 1 K6A, the screen value was 0.653 Z-score of the enrichment rate within one screen of 711 sequences.

chain 1 K6N: the screen value is 0.746 Z-score of the enrichment rate within one screen of 711 sequences.

As to chain 1 K6E, the screen value was -0.606 Z-score of the enrichment rate within one screen of 711 sequences.

On to chain 1 K6P, for which the screen value was 0.527 Z-score of the enrichment rate within one screen of 711 sequences.

With chain 1 K6V, the screen value is 0.748 Z-score of the enrichment rate within one screen of 711 sequences.

For the variant chain 1 K6D, the screen value is 0.0134 Z-score of the enrichment rate within one screen of 711 sequences.

In the case of chain 1 G5A, chain 1 I14A, the screen value is -1.03 Z-score of the enrichment rate within one screen of 711 sequences.

For chain 1 K6A, chain 1 K13A, the screen value is -0.984 Z-score of the enrichment rate within one screen of 711 sequences.

As for chain 1 K4G, the screen value is 0.543 Z-score of the enrichment rate within one screen of 711 sequences.

As for chain 1 K4T, the screen value was 0.747 Z-score of the enrichment rate within one screen of 711 sequences.

As for chain 1 K4N, the screen value is 0.364 Z-score of the enrichment rate within one screen of 711 sequences.

Take chain 1 K4M: the screen value was 0.845 Z-score of the enrichment rate within one screen of 711 sequences.

Turning to chain 1 K4I, the screen value is 0.786 Z-score of the enrichment rate within one screen of 711 sequences.

Regarding chain 1 K4F, the screen value was 1.08 Z-score of the enrichment rate within one screen of 711 sequences.

For chain 1 K4Y, the screen value was 0.747 Z-score of the enrichment rate within one screen of 711 sequences.

On to chain 1 K4P, for which the screen value is -0.0666 Z-score of the enrichment rate within one screen of 711 sequences.

Take chain 1 K4Q: the screen value was 1.02 Z-score of the enrichment rate within one screen of 711 sequences.

For the variant chain 1 K4C, the screen value is 0.526 Z-score of the enrichment rate within one screen of 711 sequences.

As for chain 1 K4W, the screen value was 1.28 Z-score of the enrichment rate within one screen of 711 sequences.

In the case of chain 1 K4E, the screen value is 0.242 Z-score of the enrichment rate within one screen of 711 sequences.

In the case of chain 1 K4D, the screen value is -0.172 Z-score of the enrichment rate within one screen of 711 sequences.

For the variant chain 1 S3A, chain 1 P15A, the screen value is 2.7 Z-score of the enrichment rate within one screen of 711 sequences.

With chain 1 K13A, chain 1 I14A, the screen value was -0.745 Z-score of the enrichment rate within one screen of 711 sequences.

Take chain 1 L12A, chain 1 I14A: the screen value is -1.27 Z-score of the enrichment rate within one screen of 711 sequences.

Consider chain 1 N9A, chain 1 K13A, for which the screen value was -0.689 Z-score of the enrichment rate within one screen of 711 sequences.

With chain 1 K6A, chain 1 K16A, the screen value is 0.354 Z-score of the enrichment rate within one screen of 711 sequences.

Take chain 1 R8A, chain 1 L12A: the screen value is -0.76 Z-score of the enrichment rate within one screen of 711 sequences.

For the variant chain 1 K13A, chain 1 P15A, the screen value is -0.309 Z-score of the enrichment rate within one screen of 711 sequences.

Turning to chain 1 S3C, the screen value was 1.84 Z-score of the enrichment rate within one screen of 711 sequences.

In the case of chain 1 S3P, the screen value was 1.6 Z-score of the enrichment rate within one screen of 711 sequences.

Take chain 1 S3W: the screen value is 2.4 Z-score of the enrichment rate within one screen of 711 sequences.

Consider chain 1 S3L, for which the screen value was 1.66 Z-score of the enrichment rate within one screen of 711 sequences.

Consider chain 1 S3I, for which the screen value was 2 Z-score of the enrichment rate within one screen of 711 sequences.

As to chain 1 S3D, the screen value was 0.932 Z-score of the enrichment rate within one screen of 711 sequences.

For chain 1 S3E, the screen value was 0.822 Z-score of the enrichment rate within one screen of 711 sequences.

Consider chain 1 S3K, for which the screen value is 2.42 Z-score of the enrichment rate within one screen of 711 sequences.

For chain 1 S3F, the screen value is 1.62 Z-score of the enrichment rate within one screen of 711 sequences.

chain 1 S3A, chain 1 G11A: the screen value is 0.988 Z-score of the enrichment rate within one screen of 711 sequences.

As for chain 1 S3A, chain 1 K16A, the screen value was 0.893 Z-score of the enrichment rate within one screen of 711 sequences.

In the case of chain 1 N9A, chain 1 I14A, the screen value was -0.573 Z-score of the enrichment rate within one screen of 711 sequences.

For the variant chain 1 S3A, chain 1 N9A, the screen value is 1.3 Z-score of the enrichment rate within one screen of 711 sequences.

Take chain 1 L12A, chain 1 K16A: the screen value is -0.931 Z-score of the enrichment rate within one screen of 711 sequences.

Take chain 1 G5A, chain 1 P15A: the screen value was 2.65 Z-score of the enrichment rate within one screen of 711 sequences.

As to chain 1 L12H, the screen value is -1 Z-score of the enrichment rate within one screen of 711 sequences.

With chain 1 L12R, the screen value is -1.21 Z-score of the enrichment rate within one screen of 711 sequences.

On to chain 1 L12G, for which the screen value was -0.861 Z-score of the enrichment rate within one screen of 711 sequences.

As for chain 1 L12E, the screen value is -1.29 Z-score of the enrichment rate within one screen of 711 sequences.

Take chain 1 L12V: the screen value is -0.424 Z-score of the enrichment rate within one screen of 711 sequences.

In the case of chain 1 L12T, the screen value was -1.06 Z-score of the enrichment rate within one screen of 711 sequences.

Consider chain 1 L12A, for which the screen value is -1.31 Z-score of the enrichment rate within one screen of 711 sequences.

On to chain 1 L12N, for which the screen value was -1.37 Z-score of the enrichment rate within one screen of 711 sequences.

For chain 1 P10A, chain 1 P15A, the screen value is 0.87 Z-score of the enrichment rate within one screen of 711 sequences.

chain 1 K7A, chain 1 L12A: the screen value is -1.2 Z-score of the enrichment rate within one screen of 711 sequences.

In the case of chain 1 K7A, chain 1 P10A, the screen value is -0.226 Z-score of the enrichment rate within one screen of 711 sequences.

In the case of chain 1 K4A, chain 1 I14A, the screen value was -1.18 Z-score of the enrichment rate within one screen of 711 sequences.

chain 1 K4A, chain 1 R8A: the screen value was -0.792 Z-score of the enrichment rate within one screen of 711 sequences.
